The values that follow come from PMC3074120 (Nucleic Acids Research, 2010).

This test has as its target GST-PIWI (PIWI domain of Ago2) (human, UniProt Q9UKV8 517-818). The test is described as follows: pull-down.

GST-PIWI (PIWI domain of Ago2), sequence (Q9UKV8 517-818): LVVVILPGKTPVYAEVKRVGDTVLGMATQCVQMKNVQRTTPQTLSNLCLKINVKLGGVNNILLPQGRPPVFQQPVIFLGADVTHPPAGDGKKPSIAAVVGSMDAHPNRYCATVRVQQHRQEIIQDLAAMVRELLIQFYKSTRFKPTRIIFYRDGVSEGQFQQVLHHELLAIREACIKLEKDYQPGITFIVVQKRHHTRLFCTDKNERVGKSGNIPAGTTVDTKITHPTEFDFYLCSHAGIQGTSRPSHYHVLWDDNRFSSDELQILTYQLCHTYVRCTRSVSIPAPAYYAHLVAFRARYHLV

B1: NHA-Δ5 (GW182 fragment Δ5, amino acids 1670-1962) (domain or fragment)
chain: TSAWSSIRASNYNVPLSSTAQSTSARNSDSKLTWSPGSVTNTSLAHELWKVPLPPKNITAPSRPPPGLTGQKPPLSTWDNSPLRIGGGWGNSDARYTPGSSWGESSSGRITNWLVLKNLTPQIDGSTLRTLCMQHGPLITFHLNLPHGNALVRYSSKEEVVKAQKSLHMCVLGNTTILAEFASEEEISRFFAQSQSLTPSPGWQSLGSSQSRLGSLDCSHSFSSRTDLNHWNGAGLSGTNCGDLHGTSLWGTPHYSTSLWGPPSSSDPRGISSPSPINAFLSVDHLGGGGESM
With B1, the “percent pull-down (of input)” value stood at 4.2%.

B2: NHA-Δ12 (GW182 fragment Δ12, amino acids 896-1219) (domain or fragment)
chain: FTWGNNINPNNSSGWDESSKPTPSQGWGDPPKSNQSLGWGDSSKPVSSPDWNKQQDIVGSWGIPPATGKPPGTGWLGGPIPAPAKEEEPTGWEEPSPESIRRKMEIDDGTSAWGDPSKYNYKNVNMWNKNVPNGNSRSDQQAQVHQLLTPASAISNKEASSGSGWGEPWGEPSTPATTVDNGTSAWGKPIDSGPSWGEPIAAASSTSTWGSSSVGPQALSKSGPKSMQDGWCGDDMPLPGNRPTGWEEEEDVEIGMWNSNSSQELNSSLNWPPYTKKMSSKGLSGKKRRRERGMMKGGNKQEEAWINPFVKQFSNISFSRDSPE
As to B2, the “percent pull-down (of input)” value turned out to be 18%.

B3: NHA-Δ12a (GW182 fragment Δ12a, amino acids 896-1045) (domain or fragment)
chain: FTWGNNINPNNSSGWDESSKPTPSQGWGDPPKSNQSLGWGDSSKPVSSPDWNKQQDIVGSWGIPPATGKPPGTGWLGGPIPAPAKEEEPTGWEEPSPESIRRKMEIDDGTSAWGDPSKYNYKNVNMWNKNVPNGNSRSDQQAQVHQLLTP
For B3, the “percent pull-down (of input)” value came to 0.2%.

B4: NHA-Δ10 (GW182 fragment Δ10, amino acids 655-1343) (domain or fragment)
chain: QTNEQSSVWAKTGGTVESDGSTESTGRLEEKGTGESQSRDRRKIDQHTLLQSIVNRTDLDPRVLSNSGWGQTPIKQNTAWDTETSPRGERKTDNGTEAWGSSATQTFNSGACIDKTSPNGNDTSSVSGWGDPKPALRWGDSKGSNCQGGWEDDSAATGMVKSNQWGNCKEEKAAWNDSQKNKQGWGDGQKSSQGWSVSASDNWGETSRNNHWGEANKKSSSGGSDSDRSVSGWNELGKTSSFTWGNNINPNNSSGWDESSKPTPSQGWGDPPKSNQSLGWGDSSKPVSSPDWNKQQDIVGSWGIPPATGKPPGTGWLGGPIPAPAKEEEPTGWEEPSPESIRRKMEIDDGTSAWGDPSKYNYKNVNMWNKNVPNGNSRSDQQAQVHQLLTPASAISNKEASSGSGWGEPWGEPSTPATTVDNGTSAWGKPIDSGPSWGEPIAAASSTSTWGSSSVGPQALSKSGPKSMQDGWCGDDMPLPGNRPTGWEEEEDVEIGMWNSNSSQELNSSLNWPPYTKKMSSKGLSGKKRRRERGMMKGGNKQEEAWINPFVKQFSNISFSRDSPEENVQSNKMDLSGGMLQDKRMEIDKHSLNIGDYNRTVGKGPGSRPQISKESSMERNPYFDKDGIVADESQNMQFMSSQSMKLPPSNSALPNQALGSIAGLGMQNLNSVRQNGNPSMFGVGNTAAQ
For the molecule B4, the “percent pull-down (of input)” value is at most 85%.
